# Test: label from the status in PepcDB records
row,Sequence,protein production
1,MQPTGNQIQQNQQQQQQLIMRVPKQEVSVSGAARRYVQQAPPNRPPRQNHQNGAIGGKKSSVTIQEVPNNAYLETLNKSGNNKVDDDKLPVFLIKLWNIVEDPNLQSIVHWDDSGASFHISDPYLFGRNVLPHFFKHNNMNSMVRQLNMYGFRKMTPLSQGGLTRTESDQDHLEFSHPCFVQGRPELLSQIKRKQSARTVEDKQVNEQTQQNLEVVMAEMRAMREKAKNMEDKMNKLTKENRDMWTQMGSMRQQHARQQQYFKKLLHFLVSVMQPGLSKRVAKRGVLEIDFCAANGTAGPNSKRARMNSEEGPYKDVCDLLESLQRETQEPFSRRFTNNEGPLISEVTDEFGNSPVGRGSAQDLFGDTFGAQSSRYSDGGATSSREQSPHPIISQPQSNSAGAHGANEQKPDDMYMGSGPLTHENIHRGISALKRDYQGASPASGGPSTSSSAPSGAGAGARMAQKRAAPYKNATRQMAQPQQDYSGGFVNNYSGFMPSDPSMIPYQPSHQYLQPHQKLMAIEDQHHPTTSTSSTNADPHQNLYSPTLGLSPSFDRQLSQELQEYFTGTDTSLESFRDLVSNHNWDDFGNNVPLDDDEEGSEDPLRQLALENAPETSNYDGAEDLLFDNEQQYPENGFDVPDPNYLPLADEEIFPHSPALRTPSPSDPNLV,not failed
2,MTLLVGLGNPTLRYAHTRHNAGFDILDSLVSELDLSFTFSPKHNAFLCVYKDFIFLKPQTYMNLSGESVLSAKNFYKTKELLIVHDDLDLPLGVVRFKNGGGNGGHNGLKSIDLLCSNSYYRLRVGISKGIGVIEHVLSKFHKNEEPLKNAAFEHAKNALKFFIESHDFNAMQNRFTLKKPLKIES,failed
3,MPDPIFSVSDARRSGTRLIGFGIGAIVVILATAATFLLLTLPDANAFNARVERVFIENDLTTQAEIRLLEILAQSGTAFADTLSSYRMVIFVLLVFASAMMIAALAFLVMLVLLNRRMAQIERTGIQVTSLLISREENTVYLNNMEFQLTPAAIETLAVLAEARMDDDVLSGAQIEAVISGRDASDCEEAAGATRIKRLRDTLGNQMISALLVKNIAKRGYMLAIEKSVIQMV,failed
4,MTNFNIDFYAPAKEQRASTHSVMGLSSVPHPSPLFLETPYSELWSRHFGSAVVSLSVTADLAMLAVACKNRQLTVLSRDGELHWSHRLDDDITATAIASNHHVAVGTQQASDGAVAVYLFDADGRELFRTSLKSAVSSLTHSSNGEHLVIQCKNQAWYIASRVADTYQLSQANAEDVAQSKRNDALLAVKDRLLSEPNLYPHAASVAVSLEGTAAIGSLDGKIHLIDCQGKPLWSRQVDGEVWTLGISENGAIIASGCTDGTVKLLANHAHDAYNQYIHALQHSAERLKNTAEQQQAVSEILASLSQTGLAVYAVNWLQEGTLQLAPDALDEIVIKLLSEQVQRFPKHYASHFILAQTYQRRQEWHQAARHFTWAGQNERMKLKSFTLAAESFQKAGLPFAAKSAYRRARELTVTEEAKKTLYTLGRIHEEQGSITDAQKYYEVVFTLNPDYLDVCARLQNLNSPPATLTSRAVPENKDWYASLIRELLSPVSQHGFDLARQDNPAHSRTARLTSVAEHRKRLLSIVSEFSLDSVDNTADARLGYDVAAYMRYDCSVPEDEAKKSLELVNMLDCIKHYGPFSKSLDIGAATGRYPTLLAQQGIQAFGVDLEPMAVEFARKKSNGALNPQFHQGDARDLPFESTQFDLVTCMMGTAAHFPRQDVPTVMSEIHRCLVPGGFCVISTWDIECPHLTYLSIYSHEQKELMRQNAISRADVSEIAIAQGFVVEEIRGVGLLPESLGYELDLQQDGPERIRNLLDMDLAFQAKFPDLHGQMYMLIIRKI,failed
5,MGWFFVFCAAISEIVGVIGLKMYSKDKTLANGAIYIGGFATSFAFLYTSFLFLQVSVAYAVWIGIGTAGAVLLNMFLFGESKSKARIISVFLIVCGVTGLKALS,failed
6,MPGKKQEVQEELLEEQLEKAYQGRINNIKESFAGVLSVLKTANTKKLERITARSHNYLGLLHMIQGNHIKSITHSRQALEYFQRVQSLKDIADAKFNIASSLYKTDNFHDGLKGLLECRQIYKSIGEGRSECRSLKSIATIYEYWSDVNKAFLIYQECIDLATRHGDLAMLSNVYNPMSGLYLKRGDIETATKLSDKSIAIKKKIKDERGLAYSIYGKGKVFFAQQKFAQAETYFLQSLELQQKFGDKLGAGMVLNKLGLTYVEQKKYLQAEKILKQAVSLAEKHNVKVNVYKSYYSLYTLYKLQHKESNALQCLEQFVLHKENNVQSHTSDIIRSYEAANEIYRLEKDTKAQIDYLEIVQKKNTELDSFFYRVSHDLKGPISSLLGLNELIEKEQFDGEALKYFNMYKKLSTRIDAIVMDLITITRISSDKIVPVKIDFMQLIEDCIHSYAYFDNFEHIQFNIEVEEGISFQSEWVIVNTILQNLIENSIKYMRHDVKKPYVFIQVYTQGQMLCIKVTDNGQGISEEYQEKIYEMFFRANDKADGSGLGLYILKRAVERLQGTVSLKSKPGKGAAFTVCIKGE,failed
7,MLSINPNEQTEKDNYKLLTGSIIPRPVAFVTSVTKEGVLNGAPYSYFNIVAANPPLISVSVQRKAGERKDTSRNAIEKGEFVVHISDESYVAAINETAANLPPNESEIELAKLTPIESEVISVPGVKEANIRMECVLERAIPLGGTEDSPACDLLIGRVVRFHVAEHLYEKGRIHAEGLKPISRLAGHNYAKLGEQFELVRPI,not failed
8,MRDILKKELILLGILISISFAGCVDQNPEEYYSKGILQYDDGNYTESIDLFEKAIQLNPEESKYWLMKGKALYNLERYEEAVDCYNYVINVIEDEYNKDVWAAKADALRHIEGKEVEAEIAEARAK,failed
9,MDGDGSSFEQFIMPPSALDRLASLHIEYPMLFQLSNVSVEKTSHCGVLEFTADEGLVYLPYWMMQNMSLEEGDVMQVKNISLVKGTYIKLQPHTQDFLDISNPKAILETTLRSYSCLTTGDTIMVPYNNKQYYINVVEAKPSSAVSIIETDCEVDFAPPLDYKEPEKPQKLTPSNKRPLQVKEEEEPASKVPKFTPFTGSGKRLDGKAQTQTEPEDTKQQEKPTENGKDDEKLSVTTPRQISGKLVFGSNSKSAAKETAKVDDPKNIVQESSTKSDEAKFKVFTGKKYSLNG,failed
10,MRVGALDVGEARIGLAVGEEGVPLASGRGYLVRKTLEEDVEALLDFVRREGLGKLVVGLPLRTDLKESAQAGKVLPLVEALRARGVEVELWDERFTTKLAQERLKHAPKRLRRDKGKLDELAAVVLLEDYLARGI,not failed
11,MKFDNKAPIYIQIMDKIKIDIINGTLKPGDKLPSVREMAVKFKVNPNTLQRVYQELERENITYTQRGTGSFVREDSDMIINLKKEMASEVIENFIENIKEFGFGNKDILKIVEDKLNEEEK,not failed
12,MAEPRENLMDWLRDAHAMEQQAEQMLKAQAARIEHYPKLKARIEQHLEETLGQQRLVEASIERLGGSPSVVKDAMGKMAAFGQAMGGMTTSDEIVKGAMASYVFENLEIATYTALLGAAKTVGDVETQRMCEQILPQEEAMAKWLLEHLPELTEEFLVRDATPGVTAKK,failed
13,EEMEKGFDPKRYARELWFKLQDMMNEGLGYDAVEVLNTLDENPELAHQKFAKVVGVSNYRYYIIQGVGEIVEIKDDGILVKVRENRKVPDLFLSNHIFGNGIVNATGIAKMEDFDRIIDFNLTATELNKIVKEEVVNSFLKQLSKGAGSVGSLVRFIAVFTLLKDEEIKYPIEAIPLYLEIQGGF,not failed
14,MENINFFIVFIEGILSIFSPCILPILPIYLSMLSNSSVEDIRDSNFKSGVLIRNTLFFTLGISTTFFILGSSISALSSFFNTNKNIIMILGGVIILFMGLFYLGVINLNILNREKRLNFKYKNMSPLSAFVLGFTFSFGWTPCIGPILASVLVMASSSKNLLMSNLLILVYTIGFILPFIIASLFYGKLFKKFDGIKKHMDLIKKISGIFIIIAGLIMLVGGIRNMNNEIKINNNPQINKSESANKDSKNESDNKKQEEGNKIPPIDFTLYDQYGNKHTLSEYKGKTIFLNFWATWCPPCRGEMPYIDELYKEYNENKDDVVILGVASPNLGREGSEEHIKNFLKEENHVFPVVLDENGAMVYQYGINAFPSTFIINKEGYITKYIPGAMTKETMKTLIESER,failed
15,MTEFTTLLQQGNAWFFIPSAILLGALHGLEPGHSKTMMAAFIIAIKGTIKQAVMLGLAATISHTAVVWLIAFGGMVISKRFTAQSAEPWLQLISAVIIISTAFWMFWRTWRGERNWLENMHGHDYEHHHHDHEHHHDHGHHHHHEHGEYQDAHARAHANDIKRRFDGREVTNWQILLFGLTGGLIPCPAAITVLLICIQLKALTLGATLVVSFSIGLALTLVTVGVGAAISVQQVAKRWSGFNTLAKRAPYFSSLLIGLVGVYMGVHGFMGIMR,failed
16,MALAMNRSITAITVTHNSAHTVRGALARLPPGVEIVCVDNASTDDLSTALSDLAVHRIDNPVNLGFGRACNIGAAAATGEYLLFINPDVRLGTDAVDALLQAAERYPNCGVFVPRTNTVDGRLWFREESEIDRLSGVSLPTRIRQVWGDCCVRFVNGGVFMIKRTLFLDTGGFDEDIFLYFEDDDLSYRLLQRDEPMILVSGAHAVHDIGTSVAQSTRSRIFRYRSKMRSEIHLRKKYGIAYSPFVDILRYSTKIGFYCLTLNRNRLINSLGRLIGIFDSILDRSRANRNGGYVALEHHHHHH,not failed
17,MKGNCLLKEYQVTMSDDAKADLLSIYHYVRDELCAPQAADDLLERLSQGMLSLSIFPERCAIIEDLIGKGYTFRQLIVKKYRIVYHVLEDEVIIVAVVYGSRHMNNWLEHHHHHH,failed
18,MYKHILVPVDLNEQGFADKAVQLAVWHAKHSNAEIHLLNVLPGIHMSMVATYFPKDAAAQMKNDVRAQLKAFAEKHIAEEVVYKLHIAEGKPYATILDYAERLGADLIVMPSHKRSRIDKVMLGSVASKVVENSPINVMVVKPQG,not failed
19,MVLIALLIALSVERLYHSPAFLHWSFFLERWQHWSAARLTNEKWKSEPLQLVRLLVPALAVGFLVVLLDNLMVTFIVSILSLLLAMNCEPARKSYKAYLKAANRGDEQQVNEHQHALTEFAGQHQPKQLSDSLIWINYRQYIAVMFYFVLFGSFGALVYASLRYAEKQISEPESTKLWQQFMWFADWVPARLAGFGLLIVGHFSRAFPVWVKHSLNPQADPDKLLFNVASKAEDIPQHPDDRTEHIACQLRLMRRQQIFWVCVIAALTLTGWVN,failed
20,MTNHNNSGKKKVAILIEQAVEDTEFIIPCNGLKQAGFEVVVLGSRMNEKYKGKRGRLSTQADGTTTEAIASEFDAVVIPGGMAPDKMRRNPNTVRFVQEAMEQGKLVAAVCHGPQVLIEGDLLRGKQATGFIAISKDMMNAGADYLDEALVVDGNLITSREPGDLAIFTTAILSRLGYGGKDAALPDEKDRNAEWWKLADAWGGSTKGDIVRGLNTALGGERYSLEALEKYTEKESDVEAKALFQEMITNKQRHIEYLETYLTRLGEKPSLSANIANQYAKVKTALTGSDDIYQIRSALGDIQTGIGDIGNLCAMYTDPIATAIFKEIYKDLVKYEQRLVSLYRTRTNATVQPPKPTTGAAVSM,not failed
21,MIPTSREERLKGRRHVRTSEDRSFLVLLAAISVAFGWLLWPFSGALLWATLLAIIFAPLYRLCLETFPEWRNLAALSTVLVVVVMVLIPVAVVIASLVEQGGELYQRVQTGEISFAHPLQQLKSALPDWAASVSDRLAGIDLSALKERLSSLVVPAGQQLAGHAINIGQLTVEFVASLLVMLYLLFFFLRDGDELNLRIRDALPLRRSHTAAILDAFTLSVRGTIKGIILVALIQGALGGLIFWLLGLTAPLLAGALMALLSLLPVLGSALVWVPVGLYLLVAGAVTKGMILLVFGTFVIGLADNFLRPVLVGQSIRMPSYVVLLATLGGLATFGANGFVIGPLVAAMFLTAWHIFVGSKEQQEVRN,failed
22,MDLRAIAMGLAFAFMWSSAFSSARIIVADASPLFSLACRFLISGLLGVIIARAMGQTWRLTRNQWKATIVFGICQNALYLGLNFYAMQTVEASVAAIIASTMPLLVALASWGLFGERLPALGIAGLLAGFLGVALIMGARIGAGVDLFGVLLCGLGALALAAATLALRGATSGGNFMMVVGLQMLVGSAVLFLATPIFETVHVTPTLPLALAFAYTTLVPGLTATFVWVLLLNRIGAIRAATFHFLNPVFGVAIAAALLGERLGALDAIGVAITTAGILAVQLSRQASARKP,failed

# Source: a protein production outcome set (Wang et al. 2014)
